From the RNAGym collection of RNA variant scans (doi:10.1073/pnas.2313332121)

B1: TPR t1 (parent)
chain: GACCAAUCUGCCCUCAGAGCUCGAGAACAUCUUCGGAUGCAGAGGAGGCAGGCUUCGGUGGCGCGAUAGCGCCAACGUCCUCAACCUCCAAUGCAUCCCACCACAUGAUGAUGCCUGAAGAGCCUUGGUUUUUUG

Variants of: B1
Assay: polymerase ribozyme fitness, log enrichment relative to wild type (log ratio); higher = more active; in vitro selection for triplet polymerase activity
Summary of the method: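 For each subunit of a heterodimeric triplet polymerase ribozyme, a mutant library was built by PCR and transcribed, then taken through a single in vitro selection round in triplicate. Selection involved annealing to a biotinylated primer, the partner subunit and triplets, incubation frozen at −7 °C, gel excision of extended constructs, capture on streptavidin beads and RT-PCR. Genotypes were retained after Illumina sequencing of inputs and outputs only with ≥10 input reads and ≥1 read in each output. Fitness is defined as the logarithm of a genotype's enrichment relative to wild-type enrichment, using inverse-variance-weighted averages across replicates, with the logarithm taken to base 2.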

Variant	polymerase ribozyme fitness (log ratio)
GACCAAUCUGCCGUCAGAGCUCGAGAACAUCUUCGGAUGCAGAGGAGGCAGGAUUCGGUGGCGCGAUAUCGCCAACGUACUCAACCUCCAAUGCAUCCCACCACAUGAUGAUGCCUGAACAGCCUUGGUUUUUUG [C13G C53A G69U C79A G120C]	-0.403
GACCAAUCUGCCGUCAGAGCUCGAGAACAUCUUCGGAUGCAGAGGAGGCAGGCUUCGGUGGCGCGAUAGCGCCAACGUCCUCAACCUCCAAUGUAUCCCACCACAUGAUGAUGCCUGAAGAGCCUUGGUUUUUUG [C13G C94U]	-1.78
GACCAAUCUGCCGUCAGAGCUUGAGAACAUCUUCGGAUUCAGAGGAGGCAGGGUUCGGUGGCGCGAUAGCGCCAACGUCCUCAACCUCCAAUGCAUCCCACCACAUGAUGAUGCCUGAAGAGCCUUGGUUUUUUG [C13G C22U G39U C53G]	-5.48
GACCAAUCUGCCGUCAGAGCUCGAGAACAUCUUCGGAUGCAGAGGAGGCAGGCUUCGGUGGCGCGAUAGCGCCAACGUCCUCAAUCUACAAUGCAUCCCACAACGUGAUGAUGCCUGAAGAGCUUUGGUUUUUUG [C13G C85U C88A C102A A105G C124U]	-6.67
GACCAAUCUGCCGUCAGAGCUCGAGAACAUCUUCGGAUGCAGAGGAGGCAGGCUUCGGUGGCGCGAUAGCGACAACGUCCUAAACCUCCAAUGCAGCCCUCCACAUGAUGAUGCAUGAAGAGCCUUGGUUUUUUG [C13G C72A C82A U96G A100U C115A]	-3.76
GACCAAUCUGCCGUUAGAGCUCGAGAACAUCUUCGGAUGCAGAGGAGGCAGGCUUCGGUGGCGCGAUAGCGCCAACGUCCUCAACCUCCAAUGCAUCCCACCACAUGAUGAUGCCUGAAAAGCCUUGGUUUUUUG [C13G C15U G120A]	-2.44
GACCAAUCUGCCGUCAGAGCUCGAGAACAUCUUCGGAUGCAGAGGAGGCAGGCUUGGGUGGCGCGAUAGCGCCAACGUCCUCAACGUCCAAUGCAUCACAAUACAUGAUGAUACCUGAAGAGCCUUGGUUUUUUG [C13G C56G C86G C98A C101A C102U G113A]	-6.46
GACCAAUCUGCCGUCAGAGAUCGAGAACAUCUUCGGAUGCAGAGGAGGUAGGCUUCGGUGGCGUGAUAGCGCCAACGUCCUCAACCUCCAAUGCAGCCCACCACAUGAUGAUGCCUGAAGAGCCUUGGUUUUUUG [C13G C20A C49U C64U U96G]	-4.56
GACCAAUCUGCCGUCAGAGCUCGAGAACAUCUUCGGAUGCAGAGGAGGCAGGCUUCGGUGGCGCGAUAGCGCCAACGUCCUCAAGCUCCAAUGCAUCCCACCACAUGAUGAAGCCUGAACAGCCUUGGUUUUUUG [C13G C85G U112A G120C]	-1.17
GACCAAUCUGCCGUCAGAGCUCGACAACAUCUUCGGAUGCAGAGGAGGAAGGCUUCGGUGGCGCGAUAGCGCCAACGUCCUCAACCUCCAAUGCAUCUCACCACAUGAUGAAGCGUGAAGAGCCUUGGUUUUUUG [C13G G25C C49A C98U U112A C115G]	-7.45
GACCAAUCUGCCGUCAGAGCUCGAGAACAUCUUAGGAUGCAGAGGAGGCAGGCUUCGGUGGCGCGAUAGCGCCAACGUCCUCAACCUCCAAUGCAUCCCACCACAUGAUGAUGCCUGAAGAGCCUUGGUUUUUUG [C13G C34A]	-4.26
GACCAAUCUGCCGUCAGAGCUCGAGAACAUCUUCGGAUGCAGAGGAGGUAAGCUUCGGUGGCGCGAUAGCGCCAACGUCCUCAACCUCCAAUGCAUCCCACCACAUGAUGAUGCCUGAAGAGCCAUGGUUUUUUG [C13G C49U G51A U125A]	-4.36
GACCAAUCUGCCGUCAGAGCUUGAGAACAUCUUCGGAUGCAGAGGAGGCAGGCUUCGGUGGCGCGAUAGCGCCAACGUCCUCAACCUCCAAUGCAUCCCACCACAUGAUGAUACCUGAAGAGCCUUGGUUUUUUG [C13G C22U G113A]	-4.71
GACCAAUCUGCCGUCAGAGCUCGAGAACAUCUUCGGAUGCAGAGGAGGCAGGGUUCGGUGGCCCGAUAGCGCCAACGUCCUCAACCUCCAAUGCAUCCCACCACAUGAUGAUGCCUGAAGAGCCUUGGUUUUUUG [C13G C53G G63C]	-2.03
GACCAAUCUGCCGUCAGAGCUCGAGAACAUCUUCGGAUGGAGAGGAGGCAGGCUUCGGUGGCGCGAUAGCGCCAACGUCCUCAACCUCCAAUGCAUCCCACCACAUGAUGAUGCCUGAAGAGCCUUGGUUUUUUG [C13G C40G]	-0.654
GACCAAUCUGCCGUCAGAGCUCGAGAACAUCUUCGGAUGCAGAGGAGGCAGGUUUCGGUGGCGCGAUAGCGCCAACGUCCUCAACCUCCAAUGCAUCCCACCACAUGAUGAUGCCUGAAGAGCCUUGGUUUUUUG [C13G C53U]	-1.87
GACCAAUCUGCCGUCAGAGCUCGAGAACAUCUUCGGAUGCAGAGGAGGCAGGCUUCGGUGGUGCGAUAGCGCCAACGUCCUCAACCUCCAAUGCAUCCCACCACAUGAUGAUGCCUGAAGAGCCAUGGUUUUUUG [C13G C62U U125A]	-1.62
GACCAAUCUGCCGUCAGAGCUCGAGAAGAUCUUCGGAUGCAGAGGAGGCAGGCUUCGGUGGCGCGAUAGCGCCAACGUCCUCAACCUCCAAUGCAACCCACCACAUGAUGAUGCCUGAAGAGCCUUGGUUUUUUG [C13G C28G U96A]	-4.5
GACCAAUCUGCCGUCACAGCUCGAGAACAUCUUCGGAUGCAGAGGAGGCAGGCUUCGGUGGCGCGAUAGCGCCAUCGUCCUCAACCGCCAAUGCAACCCACCAUAUGAUGAUGCCUGAAGAGCCUUGGUUUUUUG [C13G G17C A75U U87G U96A C104U]	-5.5
GACCAAUCUGCCGUCAGAGCUCGAGAACAUCUUCGGAUGCAGAGGAGGCAGGCUUCGGUGGCGCGAUAGCGCCAACGUCCUCAACCUCCAAUGAAUCCCAGCACAUGAUGAUGCCUGAAGAGGCUUGGUUUUUUG [C13G C94A C101G C123G]	-1.76
GACCAAUCUGCCGUCAGAGCUCGAGAACAUCUUCGGAUGCAGAGGAGGCAGGCUUCGGUGGCGCGAUAGCGCCAACGUUCUCAACCUCCAAUGCAUCCCACCACAUGAUGAUGCCUGAAGAGCCUUGGUUUUUUG [C13G C79U]	-2.23

Variant	polymerase ribozyme fitness (log ratio)
GACCAAUCUGCCGUCAGAGCUGGAGAACAUCUUCGGAUGCAGAGGAGGCAGGUUUCGGUAGCGCGAUAGCGCCAACGUCCUCAACCUCCAACGCAUCCCACCACAUGAUGAUGCCUGUAGAGCCUUGGUUUUUUG [C13G C22G C53U G60A U92C A118U]	-5.33
GACCAAUCUGCCGUCAGAGCUCGAGAACAUCUUCGGAUGCAGAGGAGGCAGGCUUGGGUGGCGCGAUAGCGCCAACGUCCUCAACCUCCAAUGCAUCCCAUCACAUGAUGAUGCCUGAAGAGCCUUGGUUUUUUG [C13G C56G C101U]	-2.67
GACCAAUCUGCCGUCAGAGUUCGAGAACAUCUUCGGAUGCAGAGGAGGCAGGCUUCGGUGGCGCGAUAGCGCCAACGUCCUCAACCUCCAAUACAUCCCACCACAUGAUGAUGCCUGAAGAGCAUUGGUUUUUUG [C13G C20U G93A C124A]	-1.04
GACCAAUCUGCCGUCAGAGCUCGAGAACAUCUUCGGAUGCAGAGGAGGCAGGCUUCGGUGGCGCGAUAGCGCCAACGUCCUCAAACUCCAAUGCAUCCCACCACAUGAUGACGCCUGAAGAGCCUUGGUUUUUUG [C13G C85A U112C]	-1.28
GACCAAUCUGCCGUUAGAGCUCGAGAACAUCUUCGGAUGCAGAGGAGGCAGGCUUCGGUGGCGCGAUAACGCCAACGUCCUCAACCUCCAAUGCAUCCCACCACAUGAUGAUGUCUGAAGAGCCUUGGUUUUUUG [C13G C15U G69A C114U]	-6.44
GACCAAUCUGCCGUCAGAGCUCGAGAAUAUCUUCGGAUGCAGAGGAGGCAGGCUUCGGUGGCGCGAUAGCGCCAACGUCCUCAACCUCCAAUGCAUCCCACCACAUGAUGAUGCCUGAAGAGCCUUGGUUUUUUG [C13G C28U]	-3.35
GACCAAUCUGCCGUCAGAGCUCGAGAACAUCUUCGGAUGCAGAGGAGGAAGGCUUCGGUUGCGCGAUAGCGCCAACGUCCUCAACCUCCAAUGCAUCCCACCACAUGAUGAUGCCUGAAGAGCCUUGGUUUUUUG [C13G C49A G60U]	-2.3
GACCAAUCUGCCGUCAGAGCUCGAGAACAUCUUCGGAUGCAGAGGAGGCAGGCUUCGGUGGCGCGAUAGCGUCAACGUCCUCAACCUCCAAUGCAUCCCACCACAUGAUGAUGCCUGAUGAGCCUUGGUUUUUUG [C13G C72U A119U]	0.275
GACCAAUCUGCCGUCAGAGCUCGAGAACAUCUUCGGAUGCAGAGGAGGCAGGGUUCGGUGGCGCGAUAGCGCCAACGUCCUCAACCUCCAAUCCAUCCCAACACAUGAUGAUGCCUGAAGAGCCUUGGUUUUUUG [C13G C53G G93C C101A]	-3.63
GACCAAUCUGCCGUCAGAGCUCGAGAACAUCUUCGGAUGCAGAGGAGGCAGGCUUCGGUGGCGCGAUAGCGCCAACGUCCUCAAGAUCCAAUGCAUCCCACCACAUGAUGAUGCCUGAAGAGCCUUGGUUUUUUG [C13G C85G C86A]	-3.16
GACCAAUCUGCCGUCAGAGCUCGAGAACAUCUUCGGAUGCAGAGGAGGCAGGCUUUGGUGGCGCGAUAGCGCCAACGUCCUCAACCUCCAAUGCAUCCCACCACAUGAUGAUGCCUGAAGAGCCUUGGUUUUUUG [C13G C56U]	-1.58
GACCAAUCUGCCGUCACAGCUCGAGAACAUCUUCGGAUGCAGAGGAGGCAGGCUUCGGUGGCGCGAUAGCGCCAACGUCCUCAACCUCCAAUGCAUCCCACCACAUGAUGAGGCCGGAAGAGCCUUGGUUUUUUG [C13G G17C U112G U116G]	-4.51
GACCAAUCUGCCGUCAGAGCUCGAGAACAUCUUCGGAUGCAGAGGAGGCAGGCUUCGGUGGCGCGAUAGCGCUAACGUCCUCAACCUCCACUGCAUCCCACCACAUGAUGAUGCCUGAAGAGCCUUGGUUUUUUG [C13G C73U A91C]	-2.89
GACCAAUCUGCCGUCAGAGCUCGAGAACAUCUUCGGAUGCAGAGGAGGCAGGCUUCGGUGGCGCGAUAGCGCCAACGUACUCAACCUCCAAUGCAUCCCACCACAUGAUGAUACCUGAAGAGCCUUGGUUUUUUG [C13G C79A G113A]	-3.53
GACCAAUCUGCCGUCAGAGCUGGAGAACAUCUUCGGAUGCAGAGGAGGCAGGCUUCGGUGGCGCGAUAGCGGCAACGUCCUCAACCUCCAAUGUAUCCAACCACAUGAUGAUGCCUGAACAGCCUUGGUUUUUUG [C13G C22G C72G C94U C99A G120C]	-6.57
GACCAAUCUGCCGUCAGAGCUCGAGAACAUCUUCCGAUGCAGAGGAAGCAGGCUUCGGUGGCGCGAUAGCGCCAACGUCUUCAACCUCCAAUGCAUCCCACCACCUUAUGAUGCCUAAAGAGCCUUGGUUUUUUG [C13G G35C G47A C80U A105C G107U G117A]	-7.66
GACCAAUCUGCCGUCAAAGCUCGAGAACAUCUUCGGAUGCAGAGGAGGCAGGCUGCGGUGGCGCGAUAGCGCCAACGUCCUCAACCUCCAAUGCAUCCCACCACAUGAUGAUGCCUGAAGAGCCUUGGUUUUUUG [C13G G17A U55G]	-5.5
GACCAAUCUGCCGUCAGAGCUCGAGAACAUCUUCGGAUGCAGAGGAGGCAGGCUUCGGUGGCGCGAUAGCGCCAACGUCCUUAACCUCCAAUGCAUCCCACCACAUGAUGAUGCCUGAAGAGCCUUGGUUUUUUG [C13G C82U]	-2.11
GACCAAUCUGCCGUCAGAGCUCGAGAACAUCUUCGGAUGCAGAGGAGGCAGGGUUCGGUGGCGCGAUAGCGUCAACGUCCUCAACCUCCAAUGCAUCCCACCACAUGAUGAUGCCUGAAGAGCCUUGGUUUUUUG [C13G C53G C72U]	-1.34
GACCAAUCUGCCGUCAGAGCUCGAGAACAUCUUCGGAUGAAGAGGAGGCAGGCUUCGGUGGCGCGAUAGCGCCAACGUCCUCAACCUCCAAUGCAUCCCACCACAUGAUGAUGCCUGAAGAGCCUUGGUUUUAUG [C13G C40A U133A]	-2.76
GACCAAUCUGCCGUCAGAGCUCGAGAACAUCUUCGGAUGAAGAGGAGGCAGGCUUCGGUGGCGCGAUAGCGCCAACGUCCUCAACCUCCAAUGCAUCCCACCACAUGAUGAUGCCUGAAGAGUCUUGGUUUUUUG [C13G C40A C123U]	-0.0334
